US20200255503A1 (Regeneron, published 2020)
Positions count from the first letter of the chain named. Names may count otherwise. Values belong to the binder of their own block, whether it stands above or below them.

Experiments:
Fel d1 (B-A)-mmH [1] = target: T1, Fel d1 (B-A)-mmH (cat (Felis domesticus)); assay: SPR, mAb captured, Fel d1 (B-A)-mmH injected, 25 C;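 further: rate constants obtained by fitting sensorgrams to a one-to-one binding model, Kd computed as koff over kon, half-life derived from koff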
T1 construct: Expressed in CHO cells; also called rFel d1.mmH; rFel d1-mmH
Experimental: Antibody-antigen association was monitored for 3 to 5 minutes, and the dissociation of antigen from the captured monoclonal antibody (in running buffer alone at 25° C.) was monitored for 10 or 15 minutes. Kinetic association (kₐ) and dissociation (kₐ) rate constants were determined by processing and fitting the data to a 1:1 binding model using Scrubber 2.0 curve fitting software. Binding dissociation equilibrium constants (KD) and dissociative half-lives (t_{1/2}) were calculated from the kinetic rate constants as: KD=kd/kₐ and t_{1/2}=ln(2)/kₐ.

rFel d1.mFc (dimeric) = rFel d1.mFc (dimeric) (cat (Felis domesticus)); assay: SPR Biacore T200, mAb captured by anti-human Fc, antigen injected
Text: (§1) The binding kinetic parameters were obtained by globally fitting the double reference subtracted data to a 1:1 binding model with mass transport limitation using Biacore T200 Evaluation Software, version 1.0.

Fel d1 (B-A)-mmH [2] = target: T1, Fel d1 (B-A)-mmH; assay: as above
Text: as §1

Chain of rFel d1.mFc (dimeric) (cat (Felis domesticus)) (chain, as listed by the source limits assumed): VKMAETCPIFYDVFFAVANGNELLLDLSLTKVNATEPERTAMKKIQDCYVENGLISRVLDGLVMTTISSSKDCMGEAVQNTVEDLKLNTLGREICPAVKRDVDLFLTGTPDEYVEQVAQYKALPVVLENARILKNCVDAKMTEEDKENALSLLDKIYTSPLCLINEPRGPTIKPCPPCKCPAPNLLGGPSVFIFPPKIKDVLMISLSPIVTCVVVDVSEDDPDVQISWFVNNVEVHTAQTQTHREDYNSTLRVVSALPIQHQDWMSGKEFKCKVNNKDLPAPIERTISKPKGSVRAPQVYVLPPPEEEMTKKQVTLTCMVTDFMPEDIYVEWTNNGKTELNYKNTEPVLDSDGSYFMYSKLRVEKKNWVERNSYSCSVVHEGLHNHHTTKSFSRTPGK
T1 sequence (chain, as listed by the source limits assumed): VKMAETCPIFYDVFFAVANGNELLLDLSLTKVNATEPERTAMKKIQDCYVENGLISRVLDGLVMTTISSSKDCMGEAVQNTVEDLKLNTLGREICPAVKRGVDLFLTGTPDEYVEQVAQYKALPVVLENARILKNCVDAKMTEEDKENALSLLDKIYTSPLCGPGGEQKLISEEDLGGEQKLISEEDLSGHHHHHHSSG

B2: H1M1234N (antibody, V domains shown)
VH: QVQLQQSGPGLVKSSQTLSLTCAISGDSVSSNSVAWNWIRQSPSRGLEWLGRTYYRSKWYNDYAVSVKSRININPDTSKNHFSLQLNSVTPEDTAVYFCARAWNWYYLDYWGQGTLVTVSS
VL: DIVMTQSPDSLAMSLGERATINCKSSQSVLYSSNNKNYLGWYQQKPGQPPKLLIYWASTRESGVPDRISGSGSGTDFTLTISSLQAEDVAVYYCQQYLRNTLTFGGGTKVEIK
notes: chimeric, human variable domains with mouse Fc (prefix H1M)
Kd (Fel d1 (B-A)-mmH [1]): 5.58 nM
koff (Fel d1 (B-A)-mmH [1]): 0.00142 s⁻¹
kon (Fel d1 (B-A)-mmH [1]): 254000 M⁻¹ s⁻¹
t1/2 (Fel d1 (B-A)-mmH [1]): 8 min

B5: H4H2636B (antibody, human IgG4, V domains shown)
VH: EVQLVESGGGLVQPGGSLRLSCAASGFTFSSYAMSWVRQAPGKGLEWVSAISGRGYNADYADSVKGRFTISRDNSKNTLYLQMNSLRAEDTAVYYCAKLEYFDYWGQGTTVTVSS
VL: DIQLTQSPSTLSASVGDRVTITCRASQSISSWLAWYQQKPGKAPKLLIYKASSLESGVPSRFSGSGSGTDFTLTISSLRPEDFATYYCQQYNSYPLTFGGGTKVEIKR
notes: human IgG4 Fc (prefix H4H)
Kd (Fel d1 (B-A)-mmH [1]): 0.924 nM
koff (Fel d1 (B-A)-mmH [1]): 0.000228 s⁻¹
kon (Fel d1 (B-A)-mmH [1]): 247000 M⁻¹ s⁻¹
t1/2 (Fel d1 (B-A)-mmH [1]): 51 min

B6: H4H2636P (antibody, human IgG4, V domains shown)
VH: B5 VH with T110L
VL: DIQMTQSPSTLSASVGDRVTITCRASQSISSWLAWYQQKPGKAPKLLIYKASSLESGVPSRFSGSGSGTDFTLTISSLRPEDFATYYCQQYNSYPLTFGGGTKVEIK
notes: human IgG4 Fc (prefix H4H); also called REGN1909
Kd (rFel d1.mFc (dimeric)): 0.0978 nM
T1/2 (rFel d1.mFc (dimeric)): 254 min
koff (rFel d1.mFc (dimeric)): 4.55e-05 s⁻¹
kon (rFel d1.mFc (dimeric)): 466000 M⁻¹ s⁻¹
Kd (Fel d1 (B-A)-mmH [2]): 0.912 nM
T1/2 (Fel d1 (B-A)-mmH [2]): 49 min
koff (Fel d1 (B-A)-mmH [2]): 0.000235 s⁻¹
kon (Fel d1 (B-A)-mmH [2]): 257000 M⁻¹ s⁻¹
Kd (Fel d1 (B-A)-mmH [1]): 0.912 nM
koff (Fel d1 (B-A)-mmH [1]): 0.000235 s⁻¹
kon (Fel d1 (B-A)-mmH [1]): 257000 M⁻¹ s⁻¹
t1/2 (Fel d1 (B-A)-mmH [1]): 49 min

B7: H4H2597B (antibody, human IgG4, V domains shown)
VH: EVQLVESGGGLVQPGGSLRLSCAVSGFTFSNYAMNWVRQAPGKGLEWVSVISDSGRSTYYADSVKGRFTISRDNSKNTLYLQMNSLRAEDTAVYFCAKRYNWNLHYFDYWGQGTTVTVSS
VL: EIVLTQSPDFQSVTPKEKVTITCRASQSIGGSLHWYQQKPDQSPKLLIKYASQSFSGVPSRFSGSGSGTDFTLTINSLEAEDAATYYCLQSSSLRTFGQGTKVEIKR
notes: human IgG4 Fc (prefix H4H)
Kd (Fel d1 (B-A)-mmH [1]): 0.501 nM
koff (Fel d1 (B-A)-mmH [1]): 0.000558 s⁻¹
kon (Fel d1 (B-A)-mmH [1]): 1.12e+06 M⁻¹ s⁻¹
t1/2 (Fel d1 (B-A)-mmH [1]): 21 min

Now those with a lower Kd (Fel d1 (B-A)-mmH [1]), led by results:

Kd (Fel d1 (B-A)-mmH [1]): 0.458 nM
koff (Fel d1 (B-A)-mmH [1]): 0.000165 s⁻¹
kon (Fel d1 (B-A)-mmH [1]): 359000 M⁻¹ s⁻¹
t1/2 (Fel d1 (B-A)-mmH [1]): 70 min
B1: H2M1237N (antibody, mouse IgG2, V domains shown)
VH: QVVLVESGGGVVQPGRSLRLSCAASGFTFSSYGMHWVRQAPGKGLEWVAVIWYDGSIKYYADSVKGRFTISRDNSNNTIYLQMNSLRAEDTAVYYCARALIPVAGTDPIFGYWGQGTLVTVSS
VL: DIQMTQSPSTLSASVGDRVTITCRASQSVSSWLAWYQQKPGKAPKLLIFKTSGLESGVPFRFSGSGSGTEFTLTISSLQPDDFATYYCQQYNTYSPTFGQGTKVEIK
notes: chimeric, human variable domains with mouse IgG2 Fc (prefix H2M)

Kd (Fel d1 (B-A)-mmH [1]): 0.402 nM
koff (Fel d1 (B-A)-mmH [1]): 0.000521 s⁻¹
kon (Fel d1 (B-A)-mmH [1]): 1.3e+06 M⁻¹ s⁻¹
t1/2 (Fel d1 (B-A)-mmH [1]): 22 min
B3: H4H2594S (antibody, human IgG4, V domains shown)
VH: EVQLVESGGGLVKPGGSLRLSCAASGFTFSDYYMNWIRQAPGKGLEWVSYISSSGSSIYYADSVKGRFTISRDNAKNSLYLLMNSLRAEDTAVYYCARDGKYNSSPGDYWGQGTLVTVSS
VL: DIQMTQSPSSLSASVGDRVTIACRASQGISNYLAWFQQKPGKAPKSLIYAASSLQSGVPSKFSGSGSGTDFTLTISSLQPEDFATYYCQQYNSYPLTFGGGTKVEIKR
notes: human IgG4 Fc (prefix H4H)

Kd (Fel d1 (B-A)-mmH [1]): 0.364 nM
koff (Fel d1 (B-A)-mmH [1]): 0.000563 s⁻¹
kon (Fel d1 (B-A)-mmH [1]): 1.55e+06 M⁻¹ s⁻¹
t1/2 (Fel d1 (B-A)-mmH [1]): 21 min
B4: H4H2607B (antibody, human IgG4, V domains shown)
VH: B3 VH with V48I, I51L, S57A, I58T, L82Q, S104T, S105V, P106A, L115T
VL: DIQLTQSPSSLSASVGDRVTITCRASQGIRNDLGWYQQKPGKAPKRLIYAASSLQSGVPSRFSGSGSGTEFTLTISSLQPEDFATYYCLQHNSYPYTFGQGTKVEIKR
notes: human IgG4 Fc (prefix H4H)

Kd (Fel d1 (B-A)-mmH [1]): 0.388 nM
koff (Fel d1 (B-A)-mmH [1]): 0.000486 s⁻¹
kon (Fel d1 (B-A)-mmH [1]): 1.26e+06 M⁻¹ s⁻¹
t1/2 (Fel d1 (B-A)-mmH [1]): 24 min
B8: H4H2606B (antibody, human IgG4, V domains shown)
VH: EVQLVESGGGLVKPGGSLRLSCAASGFTFSDYYMNWIRQAPGKGLEWVSYISSSGNSIYYADSVKGRFTISRDNAKNSLFLQMSSLRAEDTAVYYCARDGRYNDRRRGYYWGQGTLVTVSS
VL: B7 VL with L4M, G31S
notes: human IgG4 Fc (prefix H4H)

Kd (Fel d1 (B-A)-mmH [1]): 0.331 nM
koff (Fel d1 (B-A)-mmH [1]): 0.000112 s⁻¹
kon (Fel d1 (B-A)-mmH [1]): 337000 M⁻¹ s⁻¹
t1/2 (Fel d1 (B-A)-mmH [1]): 104 min
B9: H1M1241N (antibody, V domains shown)
VH: EVQLVESGGGLVKPGGSLRLSCAASGFTFSSYSMNWVRQAPGKGLEWVSSISSRSSYIYYADSVKGRFTISRDNAKNSLYLQMNSLRAEDTAVYYCARDHIVVVPGASYYYYGMDVWGQGTTVTVSS
VL: DIQMTQSPSSLSASVGDRVTITCRASQGIRNDLGWYQQKPGKAPKRLISAASSLQSGVPSRFSGSGSGTEFTLTISSLQPEDFATYYCLQHNSYPLTFGGGTKVEIK
notes: as for B2
